Data as given in patent US20230381329A1, “Zwitterion Polymer-Drug Conjugates” (University of Utah Research Foundation, priority 2022, published 2023).
Read-outs that look alike come from different tables or passages of the source.

Experiments:
[1] = target: T1, Human calcitonin (hCT) (Homo sapiens, UniProt P01258); assay: Calcitonin aggregation assay (transmittance at 540 nm, 37° C.); format: physicochemical; conditions: for time stabilized against aggregation: with 5 molar equivs CB[7]-PMet^CM80, with agitation, 37° C.; for time stabilized against aggregation / aggregation behavior alone: FIG. 5C; for aggregation behavior alone: without CB[7]-PMet^CM80, PBS pH 7.4, 37° C.; for stabilization against aggregation: with CB[7]-PMet^CM80, FIG. 5C
T1 construct: made in house; host or cells: chemical peptide synthesis (on resin)
T1 sequence (P01258 85-116): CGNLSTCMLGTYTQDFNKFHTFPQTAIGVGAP
Experimental: Aggregation assay methods. Insulin aggregation assay. Insulin aggregation was assessed (Sluzky, V.; et al. Proc. Natl. Acad. Sci. U.S.A 1991, 88 (21), 9377-9381; and Webber, M. J.; et al. Proc. Natl. Acad. Sci. U.S.A 2016, 113 (50), 14189-14194). Insulin or calcitonin samples at pH 7.4 PBS and a final concentration of 1 mg/mL were prepared with and without the addition of 1.5 molar equivs of CB [7]-PMet. Samples were plated in a clear 96-well plate (Thermo Scientific Nunc) at a volume of 150 μL per well (n=5 wells/group) and sealed with an optically clear and thermally stable seal. The plate was immediately placed into a Tecan Infinite M200 plate reader and shaken continuously at 37° C. Absorbance readings at 540 nm were collected every 6 min the duration of the experiment as reported, and absorbance values were subsequently converted to transmittance.
Calcitonin aggregation assay. hCT and analogs were dissolved in PBS buffer, pH 7.4 and centrifuged at 3000 rpm for 3 min. The supernatant concentration was determined by nanodrop (6=1615 M^−1cm^−1 at 280 nm). hCT and analogs were prepared at a final concentration of 0.5 mg/mL with and without 5 eq of PMet^CM80-CB[7]. Samples were plated at 150 μL per well in a clear 96-well plate (Fisher Scientific Nunc) and sealed with optically clear and thermally stable sealing tape (VWR). The plate was immediately placed into the plate reader at 37° C. Absorbance readings at 540 nm were collected every 6 min with 60 s shaking between reads for […]. Absorbance values were subsequently converted to transmittance.
Aggregation assays. Peptide therapeutics were prepared (Meudom, R.; et al. Curr. Res. Chem. Biol. 2022, 2, 100013) and aggregation was assessed (Sluzky, V.; et al. Proc. Natl. Acad. Sci. U.S.A 1991, 88 (21), 9377-938; and Webber, M. J.; et al. Proc. Natl. Acad. Sci. U.S.A 2016, 113 (50), 14189-14194). Insulin or calcitonin solutions were prepared in PBS at pH 7.4 at a final concentration of 1 mg/mL, and with and without the addition of 1.5 molar equivs of CB [7]-PMet for rHu insulin and 5 molar equivs for hCT. Samples were plated in a clear 96-well plate (Thermo Scientific Nunc) at a volume of 150 μL per well (n=wells/group) and sealed with an optically clear and thermally stable seal. The plate was shaken continuously at 37° C. and absorbance readings at 540 nm were collected every 6 min the duration of the experiment as reported. Absorbance values were subsequently converted to transmittance.
Next, the stabilizing effects of CB[7]-PMet^CM80 on other aggregation-prone proteins was assessed. Human calcitonin (hCT, FIG. 5A) was selected as a model protein therapeutic. Since hCT lacks a terminal Phe for host-guest complexation, the N-terminal amine was selectively modified on-resin with a benzylic amine group using reductive amination chemistry (FIG. 5B). To optimize binding, two spacer lengths between the terminal amine and the benzyl ring were examined comprising either one or two methylene units (hCT A1 and A2, respectively). Aggregation behavior over 40 h was examined using the methods described herein, and with or without CB[7]-PMet^CM80. […] However, addition of CB[7]-PMet^CM80 stabilized hCT A2 for at least 40 h with agitation, while hCT A1 was stabilized for ca. 34 h.

[2] = target: T2, recombinant human (rHu) insulin (Homo sapiens, UniProt P01308); assay: Insulin aggregation assay (transmittance at 540 nm, continuous agitation at 37° C.); format: physicochemical
T2 construct: Insulin is a 51-residue protein
Experimental: Insulin or calcitonin solutions were prepared in PBS at pH 7.4 at a final concentration of 1 mg/mL, and with and without the addition of 1.5 molar equivs of CB [7]-PMet for rHu insulin and 5 molar equivs for hCT. […] The plate was shaken continuously at 37° C. and absorbance readings at 540 nm were collected every 6 min the duration of the experiment as reported. Absorbance values were subsequently converted to transmittance. […]

[3] = target: N-terminal phenylalanine residue on insulin (Homo sapiens, UniProt P01308); conditions: CB[7] macrocycle binding N-terminal phenylalanine of insulin; cited from earlier work
[4] = tested on: Chinese hamster ovary cells; conditions: cited from earlier work
[5] = mice, cited from earlier work
[6] = target: T2, recombinant human (rHu) insulin; conditions: CB[7] alone, already shown; cited from earlier work

T2 sequence (P01308 25-54 limits assumed): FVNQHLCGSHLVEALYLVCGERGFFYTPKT
T2 sequence (P01308 90-110 limits assumed): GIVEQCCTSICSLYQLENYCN
Chain of N-terminal phenylalanine residue on insulin (P01308 25-54 limits assumed): as the sequence (P01308 25-54 limits assumed) above

Substance | time stabilized against aggregation [1] | aggregation behavior alone [1] | stabilization against aggregation [1] | further results
hCT A1: benzyl-functionalized human calcitonin with one methylene spacer between the terminal amine and the benzyl ring | ca. 34 h | rapid aggregation | – | –
hCT: Human calcitonin, SEQ ID NO: 3, H2N-CGNLSTCMLGTYTQDFNKFHTFPQTAIGVGAP | – | rapid aggregation | not stabilized | –
Poly-S-Carboxymethyl-L-Methionine Sulfonium Chloride Alkyne [PMetCM-Alk] | – | – | – | inhibition of rHu insulin aggregation under continuous agitation ([2]; 1 mg/mL insulin, PBS pH 7.4, 1.5 molar equivs additive, 37° C., 100 h, FIG. 3B): no inhibition
hCT A2: benzyl-functionalized human calcitonin with two methylene spacers between the terminal amine and the benzyl ring | at least 40 h | rapid aggregation | resistance to aggregation | –
cucurbit[7]uril [CB[7]] | – | – | – | Ka [3]: 1.5e+06 M⁻¹; IC50 [4]: 530 ± 20 µM; tolerated dose ([5]; intravenous): up to 250 mg kg^−1; tolerated dose ([5]; oral): ≤ 600 mg/kg; effect on rHu insulin stability [6]: no effect
rHu insulin: recombinant human insulin, SEQ ID NO: 1 and SEQ ID NO: 2 chains | – | – | – | aggregation of rHu insulin alone ([2]; no additive, continuous agitation at 37° C., within the first few hours): rapid aggregation
